Measured values: patent US20080292632A1 (US Dept. of Health and Human Services, published 2008)

How the values were obtained:
Assay in all cases: FACS on transfected 293T (summary with IRTA-Fc ELISA, FIG. 2A and B)
[1] = molecular target: T1, IRTA3, full-length, on transfected 293T cells (human, UniProt Q96P31 18-734)
T1 sequence: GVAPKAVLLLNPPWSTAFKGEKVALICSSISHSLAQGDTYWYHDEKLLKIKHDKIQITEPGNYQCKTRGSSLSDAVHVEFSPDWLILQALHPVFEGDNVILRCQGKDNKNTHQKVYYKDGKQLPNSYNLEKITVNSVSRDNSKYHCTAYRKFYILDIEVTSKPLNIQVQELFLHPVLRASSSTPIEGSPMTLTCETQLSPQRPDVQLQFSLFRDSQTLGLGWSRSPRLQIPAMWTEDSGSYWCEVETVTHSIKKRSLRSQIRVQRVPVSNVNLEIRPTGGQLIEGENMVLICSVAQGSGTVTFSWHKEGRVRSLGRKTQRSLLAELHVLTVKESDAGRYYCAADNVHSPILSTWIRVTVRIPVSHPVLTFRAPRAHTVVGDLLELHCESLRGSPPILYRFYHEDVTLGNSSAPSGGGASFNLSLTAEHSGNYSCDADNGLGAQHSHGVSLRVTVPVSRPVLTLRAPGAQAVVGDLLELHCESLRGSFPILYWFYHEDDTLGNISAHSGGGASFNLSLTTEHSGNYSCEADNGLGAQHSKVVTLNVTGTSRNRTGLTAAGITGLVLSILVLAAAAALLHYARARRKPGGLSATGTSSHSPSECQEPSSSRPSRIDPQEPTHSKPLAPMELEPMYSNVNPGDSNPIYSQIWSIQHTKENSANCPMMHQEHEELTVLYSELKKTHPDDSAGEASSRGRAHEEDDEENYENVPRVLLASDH
Procedure: (§1) FIGS. 2A-B are a bar graph and a set of plots showing the cross-reactivity of the anti-IRTA2 MAbs to other IRTA family members. FIG. 2A is a bar graph of the results from an ELISA of anti-IRTA2 MAbs to various Fc-fusion proteins. Each Fc-fusion protein indicated on the top of the column was captured on ELISA plates using secondary antibody (goat anti-human IgG). After washing, 100 ng/50 μl/well of MAbs were added, followed by HRP-labeled goat anti-mouse IgG and TMBZ substrate. The signals in ELISA were normalized for the amounts of each Fc-fusion protein on the plates using HRP-goat anti-human Fc. The controls are MAbs 9E10 (anti-myc tag, IgG1), BerH2 (anti-CD30, IgG1), T408 (anti-CD30, IgG2a), T420 (anti-CD30, IgG2b) and HRP-goat anti-human Fc (1/2400 dilution). […] Two days after transfection, the cells were harvested and incubated with 200 ng/100 μl of each MAb, followed by PE-conjugated goat anti-mouse IgG F(ab′)2. […] In the positive control panels, the MAbs cross-reactive to other IRTAs were used. They are F26 (anti-IRTA1 and anti-IRTA2, IgG2b), F109 (anti-IRTA3, IgG2b), F47 (anti-IRTA4, IgG2a), and F69 (anti-IRTA5, IgG2a). BerH2 (anti-CD30, IgG1) was also used. “+” indicates more than 1.5-fold than that of the control; “++” indicates more than 10-fold mean fluorescence intensity than that of the negative control.

[2] = molecular target: T2, IRTA1, full-length, on transfected 293T cells (human, UniProt Q96PJ5 20-515)
T2 sequence: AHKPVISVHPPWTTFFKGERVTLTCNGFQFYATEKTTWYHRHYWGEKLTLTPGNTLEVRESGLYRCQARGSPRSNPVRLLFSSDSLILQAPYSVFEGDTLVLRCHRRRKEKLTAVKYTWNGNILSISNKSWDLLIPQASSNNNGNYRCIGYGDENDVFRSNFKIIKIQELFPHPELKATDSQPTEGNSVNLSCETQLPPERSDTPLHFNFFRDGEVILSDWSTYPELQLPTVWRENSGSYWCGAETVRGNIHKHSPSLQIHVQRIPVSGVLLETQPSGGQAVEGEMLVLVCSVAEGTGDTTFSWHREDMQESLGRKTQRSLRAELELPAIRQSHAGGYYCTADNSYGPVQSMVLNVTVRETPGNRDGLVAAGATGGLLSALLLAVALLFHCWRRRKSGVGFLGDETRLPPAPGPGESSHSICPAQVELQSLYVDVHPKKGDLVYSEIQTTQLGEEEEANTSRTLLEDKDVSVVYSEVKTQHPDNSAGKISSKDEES
Procedure: as §1

[3] = molecular target: T3, IRTA4, full-length, on transfected 293T cells (human, UniProt Q96LA5 20-508)
T3 sequence: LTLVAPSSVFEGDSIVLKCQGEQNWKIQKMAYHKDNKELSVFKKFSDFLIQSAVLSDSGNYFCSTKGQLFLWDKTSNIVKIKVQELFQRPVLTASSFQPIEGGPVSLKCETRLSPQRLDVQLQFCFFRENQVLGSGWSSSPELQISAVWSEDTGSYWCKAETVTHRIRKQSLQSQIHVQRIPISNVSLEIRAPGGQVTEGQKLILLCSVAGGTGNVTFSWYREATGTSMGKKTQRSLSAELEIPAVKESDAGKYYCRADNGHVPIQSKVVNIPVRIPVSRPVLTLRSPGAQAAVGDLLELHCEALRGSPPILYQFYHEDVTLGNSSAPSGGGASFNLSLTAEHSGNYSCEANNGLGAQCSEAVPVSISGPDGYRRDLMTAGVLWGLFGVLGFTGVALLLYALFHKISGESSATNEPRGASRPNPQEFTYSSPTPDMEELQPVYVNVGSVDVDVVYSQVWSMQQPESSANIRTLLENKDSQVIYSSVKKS
Procedure: as §1

[4] = molecular target: T4, IRTA5, full-length, on transfected 293T cells (human, UniProt Q96LA6 17-429)
T4 sequence: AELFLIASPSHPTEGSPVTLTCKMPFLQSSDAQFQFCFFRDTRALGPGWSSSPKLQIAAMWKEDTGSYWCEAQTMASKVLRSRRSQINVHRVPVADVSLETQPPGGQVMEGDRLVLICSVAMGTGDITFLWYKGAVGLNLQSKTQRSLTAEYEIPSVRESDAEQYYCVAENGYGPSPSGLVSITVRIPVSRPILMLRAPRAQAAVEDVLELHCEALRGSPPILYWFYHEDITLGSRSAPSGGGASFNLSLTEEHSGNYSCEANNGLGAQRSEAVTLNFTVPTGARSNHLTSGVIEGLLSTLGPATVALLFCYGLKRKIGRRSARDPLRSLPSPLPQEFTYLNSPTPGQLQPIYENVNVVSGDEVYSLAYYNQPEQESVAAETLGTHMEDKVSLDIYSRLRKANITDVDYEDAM
Procedure: as §1

Measured: binding result

B1: F25 (antibody, IgG2a, V domains shown)
VH: EVQLQQSGPELVKPGTSVKMSCKASGYSFTGYFMNWMMQNHGKSLEWIGRINLYNGDTFYNQKFKDKATLTVDKSSNTVHMEFRSLASEDSAVYYCASSLYYFDYWGQGTTFTVSS
VL: DIVMTQSHKFMSTSVGDRVNITCKASQDVGTNVAWYQQKPGQSPKLLIYWASTRQTGVPDRFTGSGSGTDFTLTISNVQSEDLSDYFCQQYSSYPLTFGAGTKLELKR
notes: mouse hybridoma MAb, IgG2a, kappa; also called MAb F25; biotin-MAb F25
no binding: all assays above
